According to PMC11369174, “Proteome-scale characterisation of motif-based interactome rewiring by disease mutations” (Molecular Systems Biology, 2024):
One block for each binder: values may come before it.

Legend:
GABARAPL1 ATG8 (human) = assay: fluorescence polarisation; displacement: unlabelled peptide titrated onto a complex of FITC-labelled peptide (10 nM) and protein domain (1-2x KD); 50 mM sodium phosphate buffer pH 7.4 (CASK: plus 100 mM NaCl); KD calculated from IC50; technical triplets
MAP1LC3A ATG8 (human) = assay: as above
USP7 MATH/ TRAF (human) = assay: as above
[1] = target: E3 ubiquitin-protein ligase NEDD4 (NEDD4) WW2 domain, GST-tagged (human); assay: as above
E3 ubiquitin-protein ligase NEDD4 (NEDD4) WW2 domain, GST-tagged (human), sequence (P46934 whole entry, the tested form may be a part): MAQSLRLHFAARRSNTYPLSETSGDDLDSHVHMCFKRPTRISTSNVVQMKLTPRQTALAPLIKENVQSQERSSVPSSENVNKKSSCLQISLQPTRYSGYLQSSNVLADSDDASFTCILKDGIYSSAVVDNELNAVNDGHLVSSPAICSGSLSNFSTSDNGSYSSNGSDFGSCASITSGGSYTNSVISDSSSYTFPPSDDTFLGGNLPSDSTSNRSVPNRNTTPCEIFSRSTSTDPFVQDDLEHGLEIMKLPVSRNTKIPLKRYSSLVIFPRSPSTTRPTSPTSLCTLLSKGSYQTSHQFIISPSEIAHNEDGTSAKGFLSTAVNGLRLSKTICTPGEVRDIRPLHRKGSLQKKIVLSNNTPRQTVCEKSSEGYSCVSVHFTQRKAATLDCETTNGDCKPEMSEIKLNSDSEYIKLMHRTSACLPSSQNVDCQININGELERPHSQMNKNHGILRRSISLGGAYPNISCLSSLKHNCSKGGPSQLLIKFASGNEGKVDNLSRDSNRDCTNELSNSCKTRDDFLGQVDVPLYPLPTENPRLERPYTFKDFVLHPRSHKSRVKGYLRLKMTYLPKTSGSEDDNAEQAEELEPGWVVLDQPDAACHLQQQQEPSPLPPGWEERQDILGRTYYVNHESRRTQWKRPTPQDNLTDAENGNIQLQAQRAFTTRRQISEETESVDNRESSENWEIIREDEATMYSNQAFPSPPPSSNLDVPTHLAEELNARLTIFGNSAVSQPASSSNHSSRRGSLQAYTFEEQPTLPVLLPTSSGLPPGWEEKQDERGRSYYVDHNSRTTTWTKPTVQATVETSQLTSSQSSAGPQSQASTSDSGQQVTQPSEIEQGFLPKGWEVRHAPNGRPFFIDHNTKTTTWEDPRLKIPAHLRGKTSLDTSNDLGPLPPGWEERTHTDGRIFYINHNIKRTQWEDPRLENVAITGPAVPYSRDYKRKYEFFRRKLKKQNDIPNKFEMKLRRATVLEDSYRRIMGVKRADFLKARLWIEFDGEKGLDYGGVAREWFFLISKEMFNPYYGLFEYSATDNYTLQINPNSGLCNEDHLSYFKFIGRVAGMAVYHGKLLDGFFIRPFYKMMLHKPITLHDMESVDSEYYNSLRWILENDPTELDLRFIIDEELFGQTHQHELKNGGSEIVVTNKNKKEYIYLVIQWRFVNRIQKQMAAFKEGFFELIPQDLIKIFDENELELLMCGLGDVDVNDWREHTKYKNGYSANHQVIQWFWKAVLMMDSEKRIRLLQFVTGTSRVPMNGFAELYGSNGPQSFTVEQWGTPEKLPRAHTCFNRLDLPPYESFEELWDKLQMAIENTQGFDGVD

[2] = target: importin subunit α-3 (KPNA4) ARM domain (human); assay: fluorescence polarisation; displacement as a1, with a FITC-labelled probe sampling the minor pocket of the KPNA4 ARM domain
importin subunit α-3 (KPNA4) ARM domain (human), sequence (O00629 whole entry, the tested form may be a part): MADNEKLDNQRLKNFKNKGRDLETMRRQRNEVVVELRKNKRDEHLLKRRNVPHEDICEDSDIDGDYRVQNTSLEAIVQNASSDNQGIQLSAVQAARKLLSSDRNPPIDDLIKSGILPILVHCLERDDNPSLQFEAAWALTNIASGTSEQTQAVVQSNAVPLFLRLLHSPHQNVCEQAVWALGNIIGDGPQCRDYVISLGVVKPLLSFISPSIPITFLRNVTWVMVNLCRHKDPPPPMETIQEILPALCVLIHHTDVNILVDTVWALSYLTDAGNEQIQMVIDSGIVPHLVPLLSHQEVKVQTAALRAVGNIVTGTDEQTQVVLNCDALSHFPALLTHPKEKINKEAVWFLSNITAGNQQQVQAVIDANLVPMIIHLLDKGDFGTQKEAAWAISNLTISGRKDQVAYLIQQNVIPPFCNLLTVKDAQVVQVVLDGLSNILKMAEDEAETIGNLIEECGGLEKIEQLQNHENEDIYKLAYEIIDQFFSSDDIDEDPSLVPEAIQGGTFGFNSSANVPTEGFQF

[3] = target: importin subunit α-3 (KPNA4) ARM domain (human); assay: fluorescence polarisation; displacement as a1, with a FITC-labelled probe sampling the major pocket of the ARM domain (KPNA4, KPNA7)
FITC-STK11_mut = assay: fluorescence polarisation; saturation binding: dilution series of the protein domain added to 10 nM FITC-labelled peptide; 50 mM sodium phosphate pH 7.4, 0.05% Tween (protein dialysed in 50 mM sodium phosphate with 1 mM DTT; CASK kinase domain with 100 mM NaCl in addition); quadratic fit; technical triplets

- Kd (GABARAPL1 ATG8 (human)): 5.5 µM
B1: BUB1_(486-501) wild-type peptide (peptide)
peptide: DKDEWQSLDQNEDAFE

- Kd (MAP1LC3A ATG8 (human)): 580 µM
B2: KRT1 209-224 L214P peptide (peptide)
peptide: QTKWEPLQQVDTSTRT

- Kd (USP7 MATH/ TRAF (human)): 4.7 µM
B3: CHK2 38-53 Q51K peptide (peptide)
peptide: YISSSSTSTMPNSSKSS

- Kd (USP7 MATH/ TRAF (human)): 3.1 µM
B4: CHK2 38-53 wild-type peptide (peptide)
peptide: YISSSSTSTMPNSSQSS

- Kd (GABARAPL1 ATG8 (human)): < 0.3 µM
B5: BUB1_(486-501) S492F peptide (peptide)
peptide: DKDEWQFLDQNEDAFE

- Kd [1]: 80 µM
B6: SCNN1B_(611-626) P616R peptide (peptide)
peptide: PIPGTRPPNYDSLRLQ

- KD, minor pocket [2]: 395 µM
B7: ZNF526_(152-167) K160T peptide (peptide)
peptide: PELWVAHRTAQHLSAT

- Kd (MAP1LC3A ATG8 (human)): 55 µM
B8: KRT1 209-224 wild-type peptide (peptide)
peptide: QTKWELLQQVDTSTRT

- KD, major pocket [3]: 860 µM
B9: CREBBP 5-19 K13E peptide (peptide)
peptide: YLLDGPPNPERAKLSS

- Kd (FITC-STK11_mut): 14.1 µM
B10: ADP-ribosylation factor-binding protein GGA1 (GGA1) VHS domain (domain or fragment)
chain: ATNPLNKELDWASINGFCEQLNEDFEGPPLATRLLAHKIQSPQEWEAIQALTVLETCMKSCGKRFHDEVGKFRFLNELIKVVSPKYLGSRTSEKVKNKILELLYSWTVGLPEEVKIAEAYQMLKKQGIVKS

- Kd [1]: 603 µM
B11: SCNN1B_(611-626) P618R peptide (peptide)
peptide: PIPGTPPRNYDSLRLQ

- Kd [1]: 39 µM
B12: SCNN1B_(611-626) wild-type peptide (peptide)
peptide: PIPGTPPPNYDSLRLQ
